Data as given in patent publication US20110086767A1, “MUTANTS OF GLYCOSIDE HYDROLASES AND USES THEREOF FOR SYNTHESIZING COMPLEX OLIGOSACCHARIDES AND DISACCHARIDE INTERMEDIATES” (Institut Pasteur, priority 2008, published 2011).

Experiments:
Format in all cases: biochemical
[1] = Kinetic parameters towards α-D-GlcpNAc-OAll acceptor; settings: 250 mM for both sucrose and α-D-GlcpNAc-OAll
Method: Enzyme assays were carried out in a total volume of 2 mL containing pure enzyme (0.037 mg, 0.076 mg and 0.046 mg when using A289P-F290C, A289P-F2901 and A289P-F290L, respectively).
The kcat/Km (α-D-GlcpNAc-OAll) value was calculated from the initial rate of formation of desired disaccharide (α-D-Glcp-(1→4)-α-D-GlcpNAc-OAll), corresponding to the initial rate of α-D-GlcpNAc-OAll consumed. As saturation was not achieved with the mutants, efficiency was calculated by linear regression analysis of the velocity versus substrate concentration plot.

[2] = Enzymatic glucosylation of D-GlcpNAc derivatives: β-D-GlcpNAc-OAll; settings: sucrose:acceptor 1:1 (146 mM); estimated according to peak areas
Method: (§1) The mutant F290K and the ASNPwt were tested on other D-GlcNAc derivatives (α-D-GlcpNAc-OMe, β-D-GlcpNAc-OMe, β-D-GlcpNAc-Oallyl and D-GlcNHTCA) used as potential acceptors. The enzymatic reaction was carried out using sucrose as donor and D-GlcNAc derivative as acceptor in a 1:1 ratio (146 mM)
(§2) Efficiency of the glucosylation reaction was evaluated by HPLC analysis of the acceptor reaction product synthesized a Biorad HPLC Carbohydrate Analysis column (HPX-87K column (300×7.8 mm))
(§3) Percentages of glucosylation rates were estimated according to peak areas as no reference was available.

[3] = Enzymatic glucosylation of D-GlcpNAc derivatives: α-D-GlcpNAc-OMe; settings: sucrose:acceptor 1:1 (146 mM); estimated according to peak areas
Method: as §1, §2, §3

[4] = Glucosylation of α-D-GlcpNAc-OAll by purified F290D, F290K and ASNPwt (146 mM sucrose + 146 mM acceptor)
Method: All assays were performed at 30° C. in 50 mM Tris buffer, pH=7.0. For the acceptor reactions, F290D, F290K and ASNPwt (1G5A) were tested on α-D-GlcpNAc-OAll.
(§4) Comparison of products synthesized by wild-type and AS variants. Reactions were performed in the presence of 146 mM sucrose alone or supplemented with 146 mM acceptor. The purified wild-type or mutated GST/AS were employed at 0.5 U/mL. The reactions were stopped by heating at 95° C. for 5 min. The final mixture was centrifuged at 18 000 g for 10 min, filtered on 0.22 μm membrane and analyzed by HPLC, as previously described.
(§5) Soluble and insoluble oligosaccharides produced during the reaction were identified by HPAEC using a Dionex Carbo-Pack PA100 column at 30° C. Before analysis, the insoluble fraction was solubilized in KOH at a final total sugar concentration of 10 g/kg. Mobile phase (150 mM NaOH) was set at 1 mL/min flow rate with a sodium acetate gradient (going from 6 to 500 mM within 120 min). Detection was performed using a Dionex ED40 module with a gold working electrode and an Ag/AgCl pH reference. Note that α-D-GlcpNAc-OAll (acceptor) and its derivatives are not oxidable products and thus are not detectable by HPAEC. Sucrose, glucose, fructose, α-D-GlcpNAc-OAll (acceptor) and its derivatives (glucosylation products) were quantified by HPLC, as previously described

[5] = Enzymatic glucosylation of D-GlcpNAc derivatives: β-D-GlcpNAc-OMe; settings: sucrose:acceptor 1:1 (146 mM); estimated according to peak areas
Method: as §1, §2, §3

[6] = Product profile with 146 mM sucrose alone (HPAEC); settings: t=24 h
Method: as §4, §5

[7] = Enzymatic glucosylation of D-GlcpNAc derivatives: D-GlcNHTCA; settings: sucrose:acceptor 1:1 (146 mM); estimated according to peak areas
Method: as §1, §2, §3

[8] = HPLC screening of double-mutant libraries for variants able to glucosylate D-GlcpNAc; settings: α-D-Glcp-(1→4)-α-D-GlcpNAc (ED) from sucrose and D-GlcpNAc, microplate format
[9] = purified enzyme, Sucrose=Acceptor=146 mM, compared with ASNPwt

B1: F290K: single mutant F290K of N. polysaccharea amylosucrase 1G5A (protein)
chain: SPNSQYLKTRILDIYTPEQRAGIEKSEDWRQFSRRMDTHFPKLMNELDSVYGNNEALLPMLEMLLAQAWQSYSQRNSSLKDIDIARENNPDWILSNKQVGGVCYVDLFAGDLKGLKDKIPYFQELGLTYLHLMPLFKCPEGKSDGGYAVSSYRDVNPALGTIGDLREVIAALHEAGISAVVDFIFNHTSNEHEWAQRCAAGDPLFDNFYYIFPDRRMPDQYDRTLREIFPDQHPGGFSQLEDGRWVWTTFNSFQWDLNYSNPWVFRAMAGEMLFLANLGVDILRMDAVAKIWKQMGTSCENLPQAHALIRAFNAVMRIAAPAVFFKSEAIVHPDQVVQYIGQDECQIGYNPLQMALLWNTLATREVNLLHQALTYRHNLPEHTAWVNYVRSHDDIGWTFADEDAAYLGISGYDHRQFLNRFFVNRFDGSFARGVPFQYNPSTGDCRVSGTAAALVGLAQDDPHAVDRIKLLYSIALSTGGLPLIYLGDEVGTLNDDDWSQDSNKSDDSRWAHRPRYNEALYAQRNDPSTAAGQIYQDLRHMIAVRQSNPRFDGGRLVTFNTNNKHIIGYIRNNALLAFGNFSEYPQTVTAHTLQAMPFKAHDLIGGKTVSLNQDLTLQPYQVMWLEIA
V250mM (initial rate of acceptor consumption) [1]: 6690 µmol/min/g
glucosylation of acceptor β-D-GlcpNAc-OAll [2]: > 95%
glucosylation of acceptor α-D-GlcpNAc-OMe [3]: > 95%
maltooligosaccharide formation on addition of acceptor ([4]; 146 mM sucrose supplemented with 146 mM α-D-GlcpNAc-OAll, t=24 h): totally suppressed
times more efficient for α-D-GlcpNAc-OAll glucosylation [4, 9]: 10 times
times more efficient to form α-D-Glcp-(1→4)-D-GlcpNAc-OAll [4, 9]: 20 times
glucosylation of acceptor β-D-GlcpNAc-OMe [5]: 65-70%
length of maltooligosaccharides synthesized in the absence of acceptor [6]: ≤ 20 DP
glucosylation of acceptor D-GlcNHTCA [7]: > 95%
Glusosylation Yield to synthesize ED ([8]; listed as DM4_P2_D12): 41%
Glusosylation Yield to synthesize ED ([8]; listed as DM4_P2_H4): 42%
